Patent US12529083B2, “CYP76AD1-beta clade polynucleotides, polypeptides, and methods for producing betalains” (YEDA RESEARCH AND DEVELOPMENT CO. LTD., priority 2015, dated 2026)

Tested on: tyrosine hydroxylation to L-DOPA
Assay: Transient expression in N. benthamiana leaves, LC-MS detection of L-DOPA
Type: in vivo, Nicotiana benthamiana
Settings: vector or gene infiltrated without BvDODA1, LC-MS
Experimental: In all cases, agrobacteria were grown overnight in LB media and brought to a final O.D.600 0.2 in infiltration buffer. When co-infiltrated, agrobacteria carrying separate constructs were each brought to O.D.600 0.2 and mixed in a 1:1 ratio before infiltration. Tissues used for subsequent LC-MS analysis were sampled from leaves 7 days post infiltration. For LC-MS analysis of L-DOPA and betalains, 3-4 biological replicates for each experiment were sampled, each consisting of infiltrated tissues from 2-3 different leaves. For L-DOPA analysis, samples were extracted as described above and analyzed using a UPLC/PDA-MSMS instrument, where a UPLC separation module (Waters Acquity) was connected to a photodiode array detector (Waters Acquity 2996, 190-800 nm), and (on-line) to a triple quadrupole MS detector (Waters Xevo TQ MS), equipped with an ESI source. […] Samples were analyzed in positive ionization mode, using the following settings: capillary—2 kV, cone—26 eV, with two transitions 198.1>152.1 (collision—15 eV) and 198.1>181.1 (collision—10 eV) used for compound assignment. […]

B1: CYP76AD15: Mirabilis jalapa cytochrome P450, functional ortholog of CYP76AD6, catalyzing formation of L-DOPA from tyrosine (SEQ ID NO: 44) (protein, listed as Mirabilis jalapa)
chain: MENTMLGVILATIFLTFHIMKMLFSPSKVKLPPGPRPLPIIGNILELGDKPHRSFANLAKIHGPLVTLKLGSVTTIVVSSSEVAKEMFLKNDQPLANRTIPDSVRAGNHDKLSMSWLPVSPKWRNLRKISAVQLLSTQRLDASQAHRQAKIKQLIEYVKKCSKIGQYVDIGQVAFTTSLNLLSNTFFSKELASFDSDNAQEFKQLMWCIMEEIGRPNYADYFPILGYVDPFGARRRLSRYFDQLIEVFQVIIRERLTHDNNIVGNNNDVLATLLDLYKQNELTMDEINHLLVDIFDAGTDTTASTLEWAMSELIKNPHIMAKAQEEVRRATMSHGGATVAEIQESDINNLPYIQSIIKETLRLHPPTVFLLPRKADVDVQLFGYVVPKNAQVLVNLWAIGRDPNVWPDPEVFSPERFMDCEIDVKGRDFELLPFGAGRRICPGLSLAYRMLNLMLANMVHSFDWKLPGVENGSGSEMDSLDMDEKFGITLQKVQPLKVIPVSRK
- L-DOPA production: L-DOPA production when infiltrated alone
